The text below walks through data of patent publication US20200010522A1 (SALUBRIS BIOTHERAPEUTICS, published 2020).

The target of the test is T1, monkey HER3 antigen (monkey).
T1 construct: also called HER3 (monkey)
The test is described as follows: BIAcore (SPR). On the technique in general: SPR reads the build-up and loss of mass on a sensor chip optically.

B1: anti-HER3 mAb/NRG-1 fusion protein (recombinant fusion protein, with Fc mutations) (antibody, human IgG1, kappa)
heavy: QVQLQQWGAGLLKPSETLSLTCAVYGGSFSGYYWSWIRQPPGKGLEWIGEINHSGSTNYNPSLKSRVTISVETSKNQFSLKLSSVTAADTAVYYCARDKWTWYFDLWGRGTLVTVSSASTKGPSVFPLAPSSKSTSGGTAALGCLVKDYFPEPVTVSWNSGALTSGVHTFPAVLQSSGLYSLSSVVTVPSSSLGTQTYICNVNHKPSNTKVDKRVEPKSCDKTHTCPPCPAPEFLGGPAVFLFPPKPKDTLMISRTPEVTCVVVDVSHEDPEVKFNWYVDGVEVHNAKTKPREEQYNSTYRVVSVLTVLHQDWLNGKEYKCKVSNKALPAPIEKTISKAKGQPREPQVYTLPPSREEMTKNQVSLTCLVKGFYPSDIAVEWESNGQPENNYKTTPPVLDSDGSFFLYSKLTVDKSRWQQGNVFSCSVMHEALHAHYTQKSLSLSPGKGGGGSGGGGSSHLVKCAEKEKTFCVNGGECFMVKDLSNPSRYLCKCPNEFTGDRCQNYVMASFYKAEELYQ
light: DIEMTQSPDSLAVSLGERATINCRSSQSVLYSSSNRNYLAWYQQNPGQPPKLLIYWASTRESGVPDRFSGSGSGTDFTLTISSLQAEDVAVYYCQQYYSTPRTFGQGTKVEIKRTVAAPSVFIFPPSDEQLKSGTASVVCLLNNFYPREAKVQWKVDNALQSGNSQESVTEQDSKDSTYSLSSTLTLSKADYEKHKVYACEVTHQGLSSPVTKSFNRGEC
notes: Made in CHO-derived HD-BIOP3 cells; also called the recombinant fusion protein disclosed herein; recombinant anti-HER3 mAb/NRG-1 fusion protein; copies: 2 + 2
A word on the Kd: it is the constant that tells how readily two partners part at equilibrium. With B1, the Kd was 397 pM.
